Entries after “also recorded” stand apart in the source; their conditions may differ.
B1: CCL18: human recombinant CCL18, chemokine ligand 18, ligand/agonist of CCR6 receptor (protein)
chain: AQVGTNKELCCLVYTSWQIPQKFIVDYSETSPQCPKPGVILLTKRGRQICADPNKKWVQKYISDLKLNA

Experiments:
soluble CCR6 (sCCR6) = assay: Blocking of free soluble CCR6 detection by ELISA; format: binding, human; settings: ligand 100 ng/ml, 1 h
Description: Sera were diluted with an equal volume of PBS/BSA (1% bovine serum albumin, Sigma, Deisenhofen, Germany) either without any additives or containing CCL18 or CCL20 (both PeproTech, Hamburg, Germany; 100 ng/ml each). The diluted sera were then incubated for 1 h at 37° C. and subsequently measured by ELISA.
The sCCR6 ELISA described in Example 8 uses a monoclonal anti-CCR6 antibody as a capture antibody bound at the plate and a biotin-conjugated polyclonal anti-CCR6 antibody as a detection antibody. Most of the monoclonal anti CCR6 antibodies are directed against the N-terminal part of the receptor bearing the ligand binding site. In order to test whether the antibody recognition site of the sCCR6 molecule in sera from fibrotic patients might be covered with the ligand because of the high abundance of CCL18 in these sera, sera from healthy volunteers were incubated with 100 ng/ml of CCL18 or CCL20, respectively and sCCR6 was measured in blocked and unblocked sera by ELISA. Addition of these CCR6 ligands leads to a marked reduction of the sCCR6 signal (FIG. 20).

CCR6 [1] = target: T1, CCR6 (Homo sapiens, UniProt P51684); assay: Inhibition of CCL18-induced CCR6 down-regulation on PBMNC/lymphocytes (FACS); format: cell-based; parameters: endogenous in cells; host or cells: freshly isolated human peripheral blood mononuclear cells; settings: for CCL18 induced down-regulation of CCR6 expression in presence of inhibitor: CCL18 10 ng/ml + inhibitor 100 ng/ml, FACS
T1 sequence (P51684 1-374): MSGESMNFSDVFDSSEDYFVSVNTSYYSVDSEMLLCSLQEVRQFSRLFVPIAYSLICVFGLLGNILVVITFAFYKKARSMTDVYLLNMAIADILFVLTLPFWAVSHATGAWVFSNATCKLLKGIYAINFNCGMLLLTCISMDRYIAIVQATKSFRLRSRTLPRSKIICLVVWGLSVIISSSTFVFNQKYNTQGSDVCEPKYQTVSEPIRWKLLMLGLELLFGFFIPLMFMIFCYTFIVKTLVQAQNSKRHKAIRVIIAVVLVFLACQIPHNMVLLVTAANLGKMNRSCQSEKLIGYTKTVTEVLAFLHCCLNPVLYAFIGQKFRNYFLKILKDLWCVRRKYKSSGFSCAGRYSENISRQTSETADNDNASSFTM
Description: Freshly isolated mononuclear cells were incubated for 20 minutes with 10 ng/ml of CCL18, 100 ng/ml of the inhibitor peptide PS-AU-105 (polypeptide according to SEQ ID NO.: 9), a combination of both or were left untreated. The incubation was performed in RPMI1640 with 10% fetal calf serum and 100 U/ml Streptomycin/Penicillin at 37° C. After the incubation, the cells were centrifugated and the supernatant was discarded. The cells were fixed with 4% paraformaldehyde for 5 minutes on ice and washed twice in PBS containing 1% FCS. After fixation the cells were stained using a fluorescein-conjugated antibody against CCR6 (R&D systems, Wiesbaden, FRG) and analyzed by flow cytometry (FACScalibur and Quantiquest; both Becton Dickinson, Franklin Lakes, USA).

RLE-6TN [2] = assay: EMT of rat alveolar epithelial cell line RLE-6TN; format: cell-based; settings: 6 days
Description: (§1) If not otherwise mentioned cells were stimulated with 10 ng/ml human recombinant CCL18, 2.5 ng/ml TGFβ with or without additional 1 ng/ml TNFα.
After the indicated culture period the cells were washed once in PBS and lysed in ice cold lysis buffer. Whole cell lysates were boiled at 93° C. for 5 minutes in equal volumes of loading buffer (0.5M Tris-HCl pH 6.8, 2% SDS, 0, 05% bromphenolblue, 20% 2-mercaptoethanol, 10% Glycerol).
All samples were subjected to 12% sodium dodecylsulfate-PAGE, separated by electrophoresis and transferred to a polyvinylidene difluoride membrane (PVDF). After blocking for 2 h in Tris-buffered saline (TBS) containing 5% non-fat dry milk, the membranes were incubated with primary antibody (rabbit-anti-collagen I (Rockland, Gilbertsville Pa.); anti αSMA (rabbit-anti-aSMA (Abcam, Cambridge, Mass.); anti vimentin (Santa Cruz); anti CCR6: CKR6/C20, Santa Cruz) diluted 1:700 with TBS at 4° C. overnight. Visualization was performed using appropriate secondary antibodies labeled with IRDye 800CW or IRDye 700CW (Li-COR Bioscience, Bad Homburg, Germany) diluted 1:10 000-1:20000 for 2 h and scanned using Odyssey system (Li-COR Biosience) according to the manufactures instructions.

RLE-6TN [3] = assay: EMT of rat alveolar epithelial cell line RLE-6TN; format: cell-based; settings: for differentiation into fibroblast-like cells (EMT, morphology): culture period 6 days
CCR6 [4] = target: T1, CCR6; assay: αSMA induction in RLE-6TN transiently transfected with human CCR6; format: cell-based, rat; parameters: expressed in transfected cells; host or cells: RLE-6TN (rat alveolar epithelial cell line), transient transfection
Source text: In contrast, all stimulations induced the expression of CD90 (FIGS. 9B and C) although CD90 expression was more intense using CCL18. […] The cells were therefore transiently transfected with a commercially available plasmid containing a DNA sequence coding for human CCR6.

human primary AECII = assay: EMT of human primary alveolar epithelial cells type II; format: cell-based
Description: as §1
AECII were isolated as described previously (2). In brief, macroscopically tumor-free lung tissue was first sliced and slices were washed three times at 4° C. in phosphate-buffered saline (PBS) and then digested in sterile dispase solution (2.5 mg dispase II (Invitrogen GmbH, Karlsruhe, Germany) ml and 50 μg/ml DNase I (Roche Diagnostics, Mannheim, Germany)) at 37° C. for 60 minutes. After dispase digestion, the slices were thoroughly pipetted for several minutes using a 10 ml pipette with a wide inlet. Crude tissue and cell suspensions were filtered through nylon gauze with meshes of 50 and 20 μm. The cell suspension was then layered onto a density gradient solution (PAN Biotech GmbH, Aidenbach, Germany) and centrifuged at 800×g for 20 min.
The cells from interphase were washed and incubated in 100 mm Petri dishes (max. 6×10^7 cells/dish) in RPMI (Invitrogen, Karlsruhe, Germany) with 10% fetal calf serum (FCS) (PAA Laboratories GmbH, Colbe, Germany) and 1% penicillin/streptomycin (Biochrom AG, Berlin, Germany) at 37° C. in humidified incubator (5% CO2, 37° C.) for 15, 20 and if possible 30 minutes to remove adherent (mostly alveolar macrophages, monocytes and fibroblasts) from non-adherent cells. […]

A549 = assay: EMT induction by CCL18 in adenocarcinoma cell line A549; format: cell-based, human
Description: Cells of the adenocarcinoma cell line A549 were seeded in 6-well plates and allowed to adhere over night. After adherence the cells were stimulated with the indicated amount of CCL18. TGFβ was used as a positive control. […]

CCR6 [5] = target: T1, CCR6; assay: CCL18-induced FGF2 release by lung fibroblasts (FGF2 ELISA); format: cell-based; parameters: endogenous in cells; settings: CCL18 10 ng/ml, 24 h
Description: To estimate CCL18-induced FGF2 release fibroblasts were harvested, counted and seeded 300.000 cells per well in a 6-well cell culture plate in Quantum 333. Cells were allowed to attach over night and the medium was replaced with 1 ml of DMEM plus 10% FCS. Cells were either left un-stimulated or were stimulated with 10 ng/ml of human recombinant CCL18. To block CCR6/CCL18 interaction a blocking antibody against CCR6 (R&D systems, Wiesbaden, FRG) or an irrelevant antibody (mouse anti human IgG, R&D Systems) was added to a final concentration of 20 μg/ml in parallel cultures. After 24 h of culture the supernatant was harvested and stored at −80° C. until FGF2 determination.

CCR6 [6] = target: T1, CCR6; assay: CCL18-induced collagen I and αSMA mRNA expression in human lung fibroblast lines (real-time PCR); format: cell-based; parameters: endogenous in cells; settings: four human lung fibroblast cell lines
Description: as §1
After the indicated culture period total RNA was extracted using TRIzol Reagent according to the manufacturer's protocol (Invitrogen, Karlsruhe, Germany). Total RNA was reverse-transcribed with StrataScript RT (Stratagene, Santa Clara, Calif.) using oligo (dT)12-18 primer to produce cDNA according to the manufacturer's protocol. Specific primers for human CCR6, collagen type I, alpha-smooth muscle actin and GAPDH were designed using Primer3 software (Whitehead Institute for Biomedical Research, Cambridge, USA; http://frodo.wi.mit.edu/cgi-bin/primer3/primer3_www.cgi), Amplify1.2 software (University of Wisconsin, USA; http://engels.genetics.wisc.edu/amplify) using LocusLink and GenBank databases (National Center for Biotechnology Information; http://www.ncbi.nlm.nih.gov/LocusLink/index.html). Accession code numbers for the nucleotide sequences used to generate the respective primers and the primer sequences are depicted in FIG. 17.
All primers were intron-spanning and synthesized by MWG-Biotech (MWG-Biotech AG, Germany). […] A threshold cycle value (Ct) was calculated and used to compute the relative level of specific mRNA by the following formula: “relative expression=2^(Ct GAPDH-Ct CCL18)×10,000” for each cDNA sample.

[7] = sera with low and medium sCCR6 concentrations
[8] = serum with high sCCR6 concentration

Row | Molecule | sCCR6 detection by ELISA after ligand addition (soluble CCR6 (sCCR6); [7]) | reduction of sCCR6 ELISA signal (soluble CCR6 (sCCR6); [8]) | sCCR6 detection by ELISA after ligand addition (soluble CCR6 (sCCR6); [8]) | vimentin expression (Western Blot) (RLE-6TN [2]) | αSMA expression (Western Blot) (RLE-6TN [2]) | differentiation into fibroblast-like cells (EMT, morphology) (RLE-6TN [3]) | αSMA expression (fluorescence microscopy) (RLE-6TN [3]; day 6) | αSMA expression in CCR6 transfected versus mock transfected cells (CCR6 [4]) | further results
1 | CCL20: Chemokine ligand 20, CCR6 ligand (PeproTech) [reference compound] | nearly abolishes CCR6 detection; also recorded: totally blocked | 14% | reduced by one third | – | – | – | – | – | –
2 | PS-AU-105: inhibitor peptide, polypeptide according to SEQ ID NO.: 9, binds to and inhibits CCR6 receptor (EDCCLVYTSWQIHPKFIVDYSETSPQCPK; peptide inhibitor of CCR6) | – | – | – | – | – | – | – | – | CCL18 induced down-regulation of CCR6 expression in presence of inhibitor (CCR6 [1]; 20 minutes): diminished; also recorded: fails to down-regulate the CCR6+ sub-population; CCL18 induced down-regulation of CCR6 expression in presence of inhibitor (CCR6 [1]; 20 minutes, listed as PS-AU-1015): this down-regulation does not occur; effect of inhibitor only on CCR6 expression (CCR6 [1]; inhibitor 100 ng/ml without CCL18, 20 minutes): no effect
3 | TGFβ: cytokine stimulus used as positive control for EMT [reference compound] | – | – | – | failed to induce the expression of vimentin | strong expression of αSMA | undergoes epithelial-mesenchymal transition (EMT); also recorded: more pronounced | induces αSMA expression | induced αSMA expression in both cell types; also recorded: induce αSMA expression in both cell lines | –
4 | B1 | nearly abolishes CCR6 detection; also recorded: totally blocked | 36% | reduced by one third | expression of vimentin | Only a faint expression of αSMA | undergoes epithelial-mesenchymal transition (EMT); also recorded: induces a differentiation into spindle-shaped, fibroblast-like cells | did not | induced αSMA in CCR6 transfected cells, but not in mock transfected cells; also recorded: found in CCR6 transfected RLE-6TN but not in mock-transfected cells | αSMA and vimentin expression (Western blot) (human primary AECII; 12 days): strongly up-regulates both molecules; induction of EMT (human primary AECII; CCL18 with or without TNFα): induces EMT; FSP1 mRNA expression (qPCR) (A549; 72 h): marked and dose dependent up-regulation; also recorded: up-regulation of FSP1 expression; snail expression (western blot) (A549; 72 h): induces dose-dependently the expression; also recorded: induces snail expression; E-cadherin expression (qPCR) (A549; b569: after 24 h, b77: after 72 h): substantially down-regulated; also recorded: down-regulation of E-cadherin expression; CD90 expression (immuno-fluorescence) (RLE-6TN [3]; day 6): more intense; FGF2 release on CCL18 stimulation (CCR6 [5]; fibroblasts from fibrotic lungs): significant up-regulation; also recorded: further up-regulated; FGF2 release on CCL18 stimulation (CCR6 [5]; fibroblasts from non-fibrotic lungs): only marginal; also recorded: only marginally; collagen I mRNA expression induced (CCR6 [6]): three out of four; also recorded: up-regulates collagen I expression in three of four cell lines; CCR6 surface expression after incubation with CCL18 (CCR6 [1]; CCL18 10 ng/ml, 20 minutes): decrease in the percentage of CCR6^+ cells; also recorded: marked down-regulation; also recorded: diminishes the peak markedly

Reference: patent US10786550B2, “Blockade of CCL18 signaling via CCR6 as a therapeutic option in treating interstitial lung disease” (UNIVERSITÄTSKLINIKUM FREIBURG, priority 2010, dated 2020)
